Literature values, collected in US6713294B1, “DNA glycosylases and their use” (priority 1996, dated 2004).

Key:
3-methyladenine = settings: Roy et al. (1994); cited from earlier work
7-methylguanine = settings: Roy et al. (1994); cited from earlier work
3-methyladenine-DNA = settings: Bjelland et al. (1994); cited from earlier work
[1] = system: imidazole ring-opened form of 7-methylguanine-DNA substrate; settings: Boiteux et al. (1990); cited from earlier work

B1: N-methylpurine-DNA glycosylase: recombinant N-methylpurine-DNA glycosylase from mouse (protein, UniProt Q04841 1-333, looked up)
DNA-3-methyladenine …: MPARGGSARPGRGALKPVSVTLLPDTEQPPFLGRARRPGNARAGSLVTGYHEVGQMPAPLSRKIGQKKQRLADSEQQQTPKERLLSTPGLRRSIYFSSPEDHSGRLGPEFFDQPAVTLARAFLGQVLVRRLADGTELRGRIVETEAYLGPEDEAAHSRGGRQTPRNRGMFMKPGTLYVYLIYGMYFCLNVSSQGAGACVLLRALEPLEGLETMRQLRNSLRKSTVGRSLKDRELCSGPSKLCQALAIDKSFDQRDLAQDDAVWLEHGPLESSSPAVVVAAARIGIGHAGEWTQKPLRFYVQGSPWVSVVDRVAEQMDQPQQTACSEGLLIVQK
- Kcat for excision of 3-methyladenine (3-methyladenine): 0.013 s⁻¹
- Kcat for excision of 7-methylguanine (7-methylguanine): 0.00333 s⁻¹

B2: AlkA: Escherichia coli inducible 3-methyladenine-DNA glycosylase II (protein, UniProt P04395 1-282, looked up)
DNA-3-methyladenine …: MYTLNWQPPYDWSWMLGFLAARAVSSVETVADSYYARSLAVGEYRGVVTAIPDIARHTLHINLSAGLEPVAAECLAKMSRLFDLQCNPQIVNGALGRLGAARPGLRLPGCVDAFEQGVRAILGQLVSVAMAAKLTARVAQLYGERLDDFPEYICFPTPQRLAAADPQALKALGMPLKRAEALIHLANAALEGTLPMTIPGDVEQAMKTLQTFPGIGRWTANYFALRGWQAKDVFLPDDYLIKQRFPGMTPAQIRRYAERWKPWRSYALLHIWYTEGWQPDEA
- Turnover number on 3-methyladenine-DNA (3-methyladenine-DNA): 0.03 min⁻¹

B3: FPG protein: formamido-pyrimidine-DNA glycosylase (protein, UniProt P05523 2-269, looked up)
Formamidopyrimidine-DNA …: PELPEVETSRRGIEPHLVGATILHAVVRNGRLRWPVSEEIYRLSDQPVLSVQRRAKYLLLELPEGWIIIHLGMSGSLRILPEELPPEKHDHVDLVMSNGKVLRYTDPRRFGAWLWTKELEGHNVLTHLGPEPLSDDFNGEYLHQKCAKKKTAIKPWLMDNKLVVGVGNIYASESLFAAGIHPDRLASSLSLAECELLARVIKAVLLRSIEQGGTTLKDFLQSDGKPGYFAQELQVYGRKGEPCRVCGTPIVATKHAQRATFYCRQCQK
- Kcat on imidazole ring-opened form of 7-methylguanine-DNA [1]: 0.0233 s⁻¹
